Tested on: FLP recombinase (Saccharomyces cerevisiae (2-micron plasmid))
Test: cell_activity

Substance	activity (Tet^R colonies per trial) (no chromosomal FRT, 4 experiments)	activity (colonies per plate) (non-target strain with IPTG, 0 without)	activity (colonies per plate) (lambda FRT36 integration at lacZ-FRT with IPTG (39 without), lacY-FRT 206 with and 247 without)
E. coli chromosome without FRT	0	1	–
minimal wild-type FRT (from pJFS36)	–	–	139
